Experimental data: the supplement of paper PMC9170038

Tested on: MS2 coat protein
Experiment: apparent KD of MS2 coat protein; designed switch direction (-1 OFF switch, 1 ON switch): 1; higher = weaker reporter binding
In short: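 SNAP-549-labelled MS2 coat protein was titrated, doubling from 0.7 or 1.5 nM to 3 µM, over designed RNA switches transcribed on Illumina chips by stalled E. coli RNA polymerase. Runs were done without input, with 200 uM small-molecule ligand, or with an oligonucleotide input. Apparent KD is the per-design median over clusters of curve-fitted normalised fluorescence.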

[1] = input ligand: microRNA oligo, concentration not stated
[2] = Eterna round: R95, input ligand: microRNA oligo, concentration not stated
[3] = Eterna round: R95, input ligand: FMN 200 uM
[4] = Eterna round: R95, input ligand: none

| Sequence | apparent KD of MS2 coat protein (input ligand: FMN 200 uM) | apparent KD of MS2 coat protein [1] | apparent KD of MS2 coat protein (input ligand: none) | apparent KD of MS2 coat protein [2] | apparent KD of MS2 coat protein [3] | apparent KD of MS2 coat protein [4] |
| --- | --- | --- | --- | --- | --- | --- |
| AAGAUGCUCGUAGGAUAUUGGAAAGGAAGUGUACAAGAAGGACGGUGUCACAUGAGGAUCACCCAUGUUACAGUCUAAUGACUG [PowerStrip SSNG 1.1] (Eterna round: R96, puzzle: Same State NG 1) | 18.7 nM | 53.5 nM | 61.4 nM | – | – | – |
| GUUACAUGAGGAUCACCCAUGUAUGUGUGGGAGUAAGUGUCUUAGGAUAUCUAUGUUUUAAUUUAAGAGAAGGAAGAUUGUUGU [JMF's solution 71] (Eterna round: R96, puzzle: Same State NG 3) | 102 nM | 102 nM | 115 nM | – | – | – |
| GCAGGACGAUAAAACAUCUCACAUGAGGAUCACCCAUGUCGUGAGGAUAUGGAUCCUAAUUGGAUCCAGAAGGCAUGGUCCUGC [Fiskers NG3ss - 24] (Eterna round: R96, puzzle: Same State NG 3) | 13.2 nM | 13.1 nM | 20.9 nM | – | – | – |
| GCUAGAAUUAAUGCCAACAUGAGGAUCACCCAUGUAUGUUGGCAGGAUAUCGUUUGCUUUGCAAACGAGAAGGGCUAAACUAGC [JL SSNG3 1.03] (Eterna round: R96, puzzle: Same State NG 3) | 217 nM | 170 nM | 217 nM | – | – | – |
| GUUACAUGAGGAUCACCCAUGUAUGUGUGGGAGUAAGUGUCUUAGGAUAUCUAUGAUUUAAGUUAAGAGAAGGAAGAUUGUUGU [JMF's solution 80] (Eterna round: R96, puzzle: Same State NG 3) | 118 nM | 89.5 nM | 114 nM | – | – | – |
| GUGGGACAUGAGGAUCACCCAUGUGGGAGGGAACGAGGAUAUGUGAGGAGCGAGAAGUGAACAGAAGGCGUGGUUG [JR_SS1_Sub023] (puzzle: Same State 1) | – | – | – | 75.3 nM | – | – |
| UGUUGUAUUACAGGAUAUCUAUGAUUGUUAUUUAGAGAAGGGUAUUCACAUGAGGAUCACCCAUGUAUAUACGAGGAAGUUGUG [JMF's solution 60] (Eterna round: R96, puzzle: Same State NG 1) | 52.3 nM | 36.7 nM | 50.6 nM | – | – | – |
| AGUCUACGGAAACGUAGACAGUGGAGCGUACAUGAGGAUCACCCAUGUCAUGUGAGAGCUACUUGUUCGUCUUGAGC [SENSOR #5] (puzzle: Sensor for hsa-mir-208a) | – | – | – | 18.5 nM | 26.4 nM | 26.8 nM |
| GGUCCAGCCUGAGCUGGACGGUAGUAUGUACAUGAGGAUCACCCAUGUCAUGUAGAAGUUACUUGUUCGUCUUGAAC [SENSOR #1] (puzzle: Sensor for hsa-mir-208a) | – | – | – | 13.3 nM | 15.1 nM | 14.9 nM |
| ACAUGAGAGAUAGGAUAUCGUGUACCUACAUGUGACAUGAGGAUCACCCAUGUGGUAAGUAUGAGCGAGAAGGAUCAGAUAUGU [Equivalence 50 - Jieux - Same State NG 2] (Eterna round: R96, puzzle: Same State NG 2) | 24.6 nM | 43.1 nM | 78.4 nM | – | – | – |
| CGUACACAUGAGGAUCACCCAUGUCAGAUUUGGUCAGGAUAUGGGCGGCAUCCGCUAUUGCCAGAAGGGACUGUUG [JR_SS001_Sub703] (Eterna round: R96, puzzle: Same State 1) | 156 nM | 43.4 nM | 64.8 nM | – | – | – |
| GAGUGGAGGUAAGGAUAUAUAAUGAUAAUCACAGUAGAAGGUACUAACAUGAGGAUCACCCAUGUAGGACUAUACCAGAGAGGG [Parity 45 - Jieux - Same State NG 1] (Eterna round: R96, puzzle: Same State NG 1) | – | 11.9 nM | – | – | – | – |
| CUCCCUUGGGUAGGAUAUCUAGGAUAUGGGAAAGACUAAGUCUGUAGGUCACCUAACCCAGAUGGAGAGAAGGACCCAACACUC [pwkr ssNG2 2FMN + F9.39] (Eterna round: R96, puzzle: Same State NG 2) | 3.66 nM | 33.3 nM | 15.8 nM | – | – | – |
| GGAGAGAGAGCGCAGGAUAUUCAAGGAGAGACAUGAGGAUCACCCAUGUAAGAGAGAGAGGAGAGGGAGAAGGGUGAGAGAGAGG [Altered State 2-12 - Jieux - Same State 2] (puzzle: Same State 2) | – | – | – | 27.8 nM | 28.5 nM | 22 nM |
| GCUACGGACGUAGGAUAUGUAGGAUAUGGCGAGAGCUAAGCUUGGAAGUCACUUCAGCCAGAAGGACAGAAGGACGCCGUGAGG [pwkr ssNG2 2FMN + F9.17] (Eterna round: R96, puzzle: Same State NG 2) | 355 nM | 1.34 nM | 29.5 nM | – | – | – |
| GAGUUACAUGAGGAUCACCCAUGUUGUUUUGGAUAAGGAUAUAUGGUAGGAAGAGGAAUGAUAGAAGGUAUUAGGG [JR_SS1_Sub063] (Eterna round: R96, puzzle: Same State 1) | 41.6 nM | 26.8 nM | 35.3 nM | – | – | – |
| UGGCUGAGUCGAGGAUAUGAUCUUCAUAUAUAUACAUGAGGAUCACCCAUGUAUAAUUACAUGGAUCAGAAGGCGACUCAGCCU [SSNG2/13-A2] (Eterna round: R96, puzzle: Same State NG 2) | – | 23 nM | – | – | – | – |
| AUACUGUACCGAGGAUAUCCAUUUUUCUAACAUGAGGAUCACCCAUGUGAAGGGAUUGAGUUGUAGGAGAAGGCGGUAUAGUAU [JR_SSNG2_Sub062] (Eterna round: R96, puzzle: Same State NG 2) | 14.8 nM | 11.6 nM | 21.5 nM | – | – | – |
| GGGAGACAUGAGGAUCACCCAUGUGGGAGGGAACGAGGAUAUGUAAGGAGAGAGAAUAGAACAGAAGGCGUAGGUG [JR_SS1_Sub022] (puzzle: Same State 1) | – | – | – | 50 nM | 50 nM | 61.9 nM |
| AUUAUACAUGAGGAUCACCCAUGUAAUUAAUCUAGUAAGAUCUAGGAUAUCAGCUCGAAUAGAGCUGAGAAGGAGAUCACAUGU [SSNG3/20-D1] (Eterna round: R96, puzzle: Same State NG 3) | – | 45.8 nM | – | – | – | – |
| GUAGCAUACCGAGGAUAUUCAUAUAAUAAAUAACAUGAGGAUCACCCAUGUUGGCGAAAGCCUUGGGAGAAGGCGGAAUGCUAC [Xeonanis - 20 Mod56] (Eterna round: R96, puzzle: Same State NG 2) | 13.5 nM | 45.8 nM | 55.5 nM | – | – | – |
| UGUUAACAUGAGGAUCACCCAUGUCAAAUGAAUCGAGGAUAUGGGAAGUAAUAAGAUAAACUAGAAGGCGAAGUUG [Altered State 1-1 - Jieux - Same State 1] (puzzle: Same State 1) | – | – | – | 106 nM | 358 nM | 195 nM |
| GGAGCCGGCCUAGGAUAUUUCAUAUAAAAACAUGAGGAUCACCCAUGUAGGCCAGAAGGCCUUGGGAAGAAGGAGGUCGGCUCC [Loop Effect - U25] (Eterna round: R96, puzzle: Same State NG 2) | 12.4 nM | 27.2 nM | 30.1 nM | – | – | – |
